Measured values as given in patent publication US20210403565A1 (BIOATLA, published 2021).

T1: recombinant cynomolgus CTLA4 extracellular domain (cynomolgus, UniProt G7PL88 36-161)
T1 construct: extracellular domain; also called cynoCTLA-4; cynoCTLA4
T1 sequence: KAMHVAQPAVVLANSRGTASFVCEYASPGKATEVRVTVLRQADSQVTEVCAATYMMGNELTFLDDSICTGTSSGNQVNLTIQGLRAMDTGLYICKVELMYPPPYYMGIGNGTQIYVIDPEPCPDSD

T2: cynomolgus CTLA4 expressed on the cell surface of CHO cells (cynomolgus, UniProt G7PL88 36-223)
T2 construct: whole, on cells; also called CHO-cynoCTLA4
T2 sequence: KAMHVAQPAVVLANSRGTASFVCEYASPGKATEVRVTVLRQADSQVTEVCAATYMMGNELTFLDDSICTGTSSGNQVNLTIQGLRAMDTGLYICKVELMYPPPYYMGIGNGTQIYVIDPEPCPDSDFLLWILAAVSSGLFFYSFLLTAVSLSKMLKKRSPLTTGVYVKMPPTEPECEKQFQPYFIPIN

T3: human CTLA4 expressed on the cell surface of CHO cells (human, UniProt P16410 36-223)
T3 construct: whole, on cells; also called CHO-huCTLA4; huCTLA4
T3 sequence (looked up): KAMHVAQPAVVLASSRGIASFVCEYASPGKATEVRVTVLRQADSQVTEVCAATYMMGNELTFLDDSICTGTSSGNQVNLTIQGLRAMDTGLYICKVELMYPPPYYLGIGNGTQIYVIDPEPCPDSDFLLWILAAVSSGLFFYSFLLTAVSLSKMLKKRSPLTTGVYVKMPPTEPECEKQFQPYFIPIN


Assays:
[1] = target: T1, recombinant cynomolgus CTLA4 …; test: ELISA, immobilised cynoCTLA-4, pH 6.0, mean +/- SD
[2] = target: T2, cynomolgus CTLA4 expressed on the cell …; test: FACS on CHO-cynoCTLA4 cells, pH 6.0, mean
Description: The amount of antibodies bound on the cells was quantified using anti-human IgG antibody conjugated to fluorophores. EC₅₀ values at pH 6.0 and 7.4 for binding to cells were calculated using the nonlinear fit (variable slope, four parameters) model built into GraphPad Prism software (version 7.03). The expression levels of human CTLA4 or cynomolgus CTLA4 on the surface of the CHO cells were determined using a BD QuantiBRITE™ PE kit.

[3] = target: T1, recombinant cynomolgus CTLA4 …; test: SPR, cynomolgus CTLA4 ECD immobilised, pH 6.0, equilibrium fit
[4] = target: T1, recombinant cynomolgus CTLA4 …; test: ELISA, immobilised cynoCTLA-4, pH 6.0, Jun. 27, 2017
[5] = target: T1, recombinant cynomolgus CTLA4 …; test: ELISA, immobilised cynoCTLA-4, pH 6.0, Jun. 19, 2017
[6] = target: T2, cynomolgus CTLA4 expressed on the cell …; test: FACS, CHO cells expressing cynomolgus CTLA4 (CHO-cynoCTLA-4), pH 7.4, MFI; no unit in the table, unit from the axis Log Antibodies [ng/ml]
[7] = target: T3, human CTLA4 expressed on the cell …; test: FACS competition on CHO-huCTLA4: hB7-2 titrated against a fixed concentration of Ipilimumab, bound antibody detected, % competition; pH 6.0 per the text; no plateau reached (about 25 to 45 % at log 3.95); unit from the axis hB7-2 log[ng/mL]
[8] = target: T3, human CTLA4 expressed on the cell …; test: FACS competition on CHO-huCTLA4: hB7-2 titrated against a fixed concentration of Ipi Analog, bound antibody detected, % competition; pH 6.0 per the text; no plateau reached (about 25 to 45 % at log 3.95), fit marked ~; unit from the axis hB7-2 log[ng/mL]
[9] = target: T3, human CTLA4 expressed on the cell …; test: FACS competition on CHO-huCTLA4: hB7-2 titrated against a fixed concentration of BA-087-05-19, bound antibody detected, % competition; pH 6.0 per the text; no plateau reached (about 25 to 45 % at log 3.95); unit from the axis hB7-2 log[ng/mL]
[10] = target: T3, human CTLA4 expressed on the cell …; test: FACS competition on CHO-huCTLA4: hB7-2 titrated against a fixed concentration of BA-087-08-32, bound antibody detected, % competition; pH 6.0 per the text; no plateau reached (about 25 to 45 % at log 3.95); unit from the axis hB7-2 log[ng/mL]

| EC50 [1] [µg/mL] | EC50 [2] [µg/mL] | Kd [3] [nM] | EC50 [4] [µg/mL] | EC50 [5] [µg/mL] | EC50 [6] [µg/mL] | EC50 [7] [µg/mL] | EC50 [8] [µg/mL] | EC50 [9] [µg/mL] | EC50 [10] [µg/mL] | Binder |
| --- | --- | --- | --- | --- | --- | --- | --- | --- | --- | --- |
| 0.0153 | 0.338 | 6.58 | 0.021 | 0.00966 | 0.177 | – | – | – | – | Ipilimumab (antibody, V domains shown) VH: QVQLVESGGGVVQPGRSLRLSCAASGFTFSSYTMHWVRQAPGKGLEWVTFISYDGNNKYYADSVKGRFTISRDNSKNTLYLQMNSLRAEDTAIYYCARTGWLGPFDYWGQGTLVTVSS VL: not shown |
| – | – | – | – | – | – | 7.19 | ~2.45 | 3.73 | 3.87 | hB7-2 (hCD86) (ligand, human, UniProt P42081 24-247, looked up) APLKIQAYFNETADLPCQFANSQNQSLSELVVFWQDQENLVLNEVYLGKEKFDSVHSKYMGRTSFDSDSWTLRLHNLQIKDKGLYQCIIHHKKPTGMIRIHQMNSELSVLANFSQPEIVPISNITENVYINLTCSSIHGYPEPKKMSVLLRTKNSTIEYDGVMQKSQDNVTELYDVSISLSVSFPDVTSNMTIFCILETDKTRLLSSPFSIELEDPQPPPDHIP |
